Target: SSPG1d peptide ([…])
Assay: ELISA

B1: polyhistidine tagged scFv-SSPG1d-peptide (scFv)
scFv: MDIVLTQSPAIMSASPGEKVTMTCSASSSVSYMHWYQQKSSTSPKLWIYDTSKLASGVPGRFSGSGSGNSYSLTISSMEAEDVATYYCFQGSGYPLTFGAGTKLEIKRGAGGSGGGGSGGGGSGGGGSQVQLQQSGAELVRPGSSVKISCKASGYAFSNYWMNWVKQRPGQGLEWIGQIYPGYGDAKYNGKFKGKATLTADISSSTAYMQLSSLTSEDSAVYFCARSSYEANWGQGTLVTVSALEHHHHHH
Binder B1 has a Kd of 26.7 nM.
